Source: the supplement of paper PMC12636428

tested on: Saccharomyces cerevisiae; test: transcriptional activation domain activity (GFP:mCherry ratio, weighted mean of sorted bins, harmonized to initial dataset scale) (arbitrary fluorescence ratio units); higher = stronger transcriptional activation; conditions: beta-estradiol 1 µM; induction time 4 h
Outline: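 Barcoded protein tiles fused to an estradiol-inducible synthetic transcription factor were integrated at the yeast URA3 locus, in diploids carrying a GFP reporter. Cultures were diluted 1:5 into SC with 1 uM beta-estradiol, held 4 hours at 30 °C, sorted into 8 bins by GFP:mCherry ratio, and barcodes sequenced. Tiles under 50 reads were discarded. Activation activity is the read-weighted mean of bin median fluorescence, averaged across barcodes, then linearly mapped onto the initial dataset scale.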

In order of falling “transcriptional activation domain activity” value:
1. ELNEYLDLFKNNFLPHFPIIHPSLLDLDLDSLQRYTNEDGYDDAENAQLFDRL  117000
2. GSSTTPARCTSARTMRSASYGASKYKGREGKVTQVYRKKWVIHVQRDKVGQVR  83200
3. FKCCAVAFPIVCFATPYTALIQRPLVQQAAMFGIMIVKCFAVIFAFPCSIILL  81600
4. RLLIVFAWMCRLGCWIEMDHEARLVLLKFLATFKANSNNVISYKLDQYYLTGL  80100
5. ERVIGGIQEDLLLIKTFLTRLSLSHHIHNFHADSWSLGHLASLSWYSFMVWFL  80000
6. MESVTCFYFHLFRFFHSRLLVFVLMLCFESIVSLFRFLCIFVFSLFFYIFFFF  75500
7. PLIQVPGYHSCGHGGLGGLCQASPTLLVISQSLFLRWWHTVHLLIEIYIWLWS  72200
8. GVERNHLSVFRPVSFSFSSWFMLLLFFCFRGVELVILFPDCSWFLCIPLFYSF  67700
9. MLSSWSTSLNLVFFSLTWTTIAMTYSPLQLEFFAPLLLRTFLYLLPSALFLLF  67600
10. EMGLSTAPGHQTAEFTITGIGLILKTLWLCADLITFLLSLQRLIFHALVLLFS  64300
11. MFLTLLLGISLLPSLVIVYHLPHSLSFFFPPFLPFLLLPSILFLPGPFLRTAR  64000
12. MYLFVLYLFFFIIVIRLFMLLFCVYFSVIFCYLFTLVLLLLFIIFFKLIFILL  62600
13. MVGLVGFWVLFLFFLCPFLFSCPLPLPPLRPSLYIFQISYGSFFFLLFFSIFF  62300
14. PFSHFVRMLLIYLPSLRLIVYYAFSFTLIMPFVLGYSVFMPSNWDTATFFFSY  61900
15. DGNNSKPLSPGWTDQTAYNAFGITTGMFNTTTMDDVYNYLFDDEDTPPNPKKE  61500
16. MISFPLFDPVVFNPFLFYDILSSFCSCFSFFFSLLFFPILQYPFLFFSCFFIA  60100
17. NYVMLCSVYTTVHIHKHGRDAWKLMIRERSWKYILFAMADLQGNLFVLYAFRN  59300
18. ILHELTIVVACHRWNHGLFFFFQMMQIPIIMYSDKIPWFRDQHALRNWCFWLA  58000
19. SASSRESSASASHSASKSESSAAASRTSSAPATQSTGAAVANRAGVVGAVAGG  57700
20. RVHPTCLKEFGTADFICGQCNSIYRSGRFLRIARCICLMCHLLSLASTVGLIF  57300
21. MLTHLHFVEQPLTPPFFSVSITSFLLRSFAFPPCVLPSVAFFLCLFCFLPLLV  56500
22. WLSHSKKKSCDVCKHPYSFTKVYAENMPPRLPVFLLLRKVVEQAFFTIVFSIR  55100
23. EKESVCYKLRLNRDSLSIMKDFLACKHEHDPSLIVLAHVLLYKVTATFVKAVS  53500
24. ALLCLCWAPEPRGLLALGIGCLVFLFLYFYPCCFFFFFFYSYLCFCTVVLFFP  53300
25. DYLWADMDSFFPFVRLLPTPVQEIWDMTFDIALLPLMECPPPEEWTLFDTYAY  52400
26. QFFFFVLSFFFFVGFVGADDLCSFILFLLFFSTPFFFIGKASLLSSFFAFHST  51700
27. FLNNAPDEDPNLNNQWSICDDFSEGRQVNDAFVGGSNIPHTLKGLQKSLRFMN  50800
28. EAYPEPEEEPTMEPIDLSDDALLQVSYRLQKQNLSSSIVLLLTNRCLFISKPY  49400
29. MFYNFLFSLFSLFHMLLLHQSLVSLSYPFFLPGNFPLSVTIFIIAPLSLFWFI  48900
30. EADGERRSNGGSAGPRAGRRGGRDRDDRKGKPSKDSKARGEKSSEEKIGSNKE  47500
31. SRIRAKRIYTKLNLFFRSAFLSYTDFKQTIIVLVSLLKLSLNLWDIVKLMCPQ  47400
32. LLVLLLVLLLVLLLILLLILLILLVYLLLLLLLVLLFFLLLLLLLFTFILHFL  46200
33. RYLKCGGHVKHFFDLSRRADLSLEWLRRYPMEAVITDQIVSWLCHICLRQMRV  46000
34. VVHLLSPKRLDILWGVNPKGIHIFRMVLFISLLFSYLGRSGSLMLSIARIFTY  45900
35. LIHVVNLAQVLAVLIHRTVYGLLPIFEVMSCAIFPFLVSMWHIAFLLMYTVML  45700
36. FPRLTDMVCELEDYLRPLAEHARAADVELVEIAVVSVYVNILNFSWKARCVFV  43600
37. ASVERCHRNIVPNGCAVFQAGGLVVVLVEVSRKSYLASLVPVIVNAILNEHQI  43500
38. LLLLYGLTWAFNLIACMLTSTNNGNMVSCILTNFNCIIVYTITKIILYLYFVE  43200
39. KDKNKEKERGKHKHRRRERDGDGDGDEEDGRSSKKHKKERGQKRSEKEGGGED  42100
40. QGRTLDVTRAVSRDRAEKLRETGERTRERKDKRNLYLMREGVIFVSTPSASTL  39700
41. FQAQGDDELTVVEGDALWIIEQEGDEWWKCRNIKGDEGVVCVVIPRPTGAGRL  36300
42. MATLDVFLRVYCFTLSFLLFLFLIIIFILAYSAFAVDFFFLFVYSSTIELCFI  36200
43. DVNTGATSAPLSVGDVRHVAAPLEESGGCTLAMLVDDDGVMRIVVLRVTVDPV  35300
44. GAKVRSWPLTYIYTLYFFMTYFIFYRNLFARLQDPKQVLYLQLGLSMWIVFIY  35200
45. QGEEGEKKAGGRGRGGGRKKAEKHMAEGSGDEISPKKSGKGGEAGGSKAAAGA  33700
46. ITVFNYTVYDIISPTGTNYLAFMCWIGLWSLVFHWILAITNCCNWLRYVTRFP  32700
47. SRSRSRDRHRRSSRRHRRRSPSASRSRSASRSRRRRHSKRRSREKRHSSRRHR  30200
48. KQYCVRPNSGRIEPGKEVEVQVILQAMKQEPPPDTKCRDKFLVQAVAIAADKE  29700
49. SSSKKRKAVEVEEEEEEEEEEEEPVEEPEVEKEKEIVAAPVAKKAKVTAAATS  29300
50. MDGVLKLPFLSFLFPFFLFFSSPPLFSPCFFPLFLSFFAVIAFFPFLCFCLPV  29300
51. AAGPGNNDLDDTDTDNQQFFLSDMNLNGSSVFENVFDDDDDDDDVETHSIVHS  28900
52. ASNTTEVQLFINGSYVLLDTVCTRVLLYPDQILSNFRREDIALLCLQFWLFFI  28700
53. MRNDRGERKKEKRRREARERKKKERKGRREKGGKRKEEDEEKGRGGRGRRNGG  28600
54. PYLFIIRLLRLYKLPLIFMTSPVYIKTLKMMQNALGIGQTVAVIFPLTFWFCI  27600
55. SAFGSSANAPTSGGFGAFGQPVAAAATTSAFGSTTPFGAAAPSPAAPAAAASP  25700
56. MILLVSFFFLLLIFFFSIREFRSECIVNDFWSFVYLSAYIVLDVCRIFFFLFW  25600
57. MAYLFLYFTIFFIFFFIAGDGGDDCEIFFLFFFFSFKALFTPFFYLYLYWTSA  25400
58. PKPVPEQEMKDAAEKPEPEETKAAGEVKPEDAMEVDQTSKPAKSKKGKIVKRR  24400
59. SKHATEAEKKKEEEKKSKSKEAPAKKEKKEKVKEEKPKEKVVAKIPEPAPSEP  20200
60. GNGKNKHTQRHRGGEKRNLPPSKKQRRKKKSRRIRHRKAQPHPDDEQLQDDKG  17000
61. EDGEQKKQVLACSFCRERKIACGRPSAHSRDRTCNQCARRCMKCEHPTESRRG  13800
